Measurements from EP2091973A2.

How the values were obtained:
Assay in all cases: cell-based or functional assay
[1] = target: gp120 of HIV strain BR004 (clade C) on virus (HIV-1 (strain BR004))
[2] = target: gp120 of HIV strain SF162 (clade B) on virus (HIV-1 (strain SF162))
[3] = target: gp120 of HIV strain ZA009 (clade C) on virus (HIV-1 (strain 97ZA009))

In the case of MAb b12 (antibody), the IC80, HIV neutralization (PBMC hosts, p24) [1] is reported as > 20 µg/mL, the IC80, HIV neutralization (PBMC hosts, p24) [2] is reported as 14.1 µg/mL and the IC80, HIV neutralization (PBMC hosts, p24) [3] is reported as > 20 µg/mL.
